From article doi:10.1101/2023.05.29.542777

What was measured:
Experiment in all cases: co-IP
[1] = target: TbTim10-2X-Myc (T. brucei)
[2] = target: TbTim13-3X-HA (T. brucei)
TbTim9-3X-HA (T. brucei) = target: TbTim9-3X-HA (T. brucei)
[3] = target: TbTim10-3X-HA (T. brucei)
[4] = target: TbTim12-3X-HA (T. brucei)
[5] = target: TbTim8/13-3X-HA (T. brucei)

TbTim8/13-3X-HA (natural protein) was tested, and the percent of the input co-precipitated (% of the input) [1] was 45.
TbTim9-3X-HA (natural protein) showed a percent of the input co-precipitated (% of the input) [1] of 35.
With TbTim10-2X-Myc (natural protein) the percent of the input co-precipitated [2] was less than 10%, the percent of the input co-precipitated (% of the input) (TbTim9-3X-HA (T. brucei)) was 60 and the percent of the input co-precipitated [3] was less than 10%. It also gave a percent of the input co-precipitated [4] of less than 10% and a percent of the input co-precipitated (% of the input) [5] of 60.
With TbTim10-3X-HA (natural protein) the percent of the input co-precipitated (% of the input) [1] was 30.
TbTim12-3X-HA (natural protein) was tested, and the percent of the input co-precipitated (% of the input) [1] was 25.
